Starred links: 1 amine or outer side, 2 acyl side, 3 side chain; linkers in the order of their positions; H or OH if unused. Positions of bridges follow the written chain, without caps; N, C: chain ends. Groups on a side chain read outwards from the residue. No end group written: not given here. *: point of attachment. C20 diacid = O=C(O)CCCCCCCCCCCCCCCCCCC(=O)*; γGlu = O=C(O)[C@H](CCC(=O)[*:2])N[*:1]; AEEA = NCCOCCOCC(=O)O
T1: human amylin 3(a) receptor (human calcitonin receptor + RAMP-3) (human, UniProt P30988 25-474; O60896 24-148)
T1 sequence (looked up) 1: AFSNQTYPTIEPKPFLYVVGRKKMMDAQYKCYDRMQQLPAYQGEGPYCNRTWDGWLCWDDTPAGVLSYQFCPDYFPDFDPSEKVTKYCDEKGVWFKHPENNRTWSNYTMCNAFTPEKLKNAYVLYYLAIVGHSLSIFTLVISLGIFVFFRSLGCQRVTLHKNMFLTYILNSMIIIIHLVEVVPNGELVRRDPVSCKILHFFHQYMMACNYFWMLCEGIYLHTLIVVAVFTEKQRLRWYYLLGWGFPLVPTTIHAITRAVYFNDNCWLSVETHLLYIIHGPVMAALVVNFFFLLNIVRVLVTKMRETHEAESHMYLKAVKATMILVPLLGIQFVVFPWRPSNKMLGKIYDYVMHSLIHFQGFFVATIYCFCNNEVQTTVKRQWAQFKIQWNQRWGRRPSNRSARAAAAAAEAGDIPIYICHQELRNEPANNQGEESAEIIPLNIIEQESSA
T1 sequence (looked up) 2: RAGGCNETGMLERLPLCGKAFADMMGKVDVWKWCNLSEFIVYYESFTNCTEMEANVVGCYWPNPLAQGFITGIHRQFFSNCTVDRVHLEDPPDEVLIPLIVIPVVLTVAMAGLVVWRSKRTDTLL

T2: human calcitonin (a) receptor (human, UniProt P30988 25-474)
T2 sequence (looked up): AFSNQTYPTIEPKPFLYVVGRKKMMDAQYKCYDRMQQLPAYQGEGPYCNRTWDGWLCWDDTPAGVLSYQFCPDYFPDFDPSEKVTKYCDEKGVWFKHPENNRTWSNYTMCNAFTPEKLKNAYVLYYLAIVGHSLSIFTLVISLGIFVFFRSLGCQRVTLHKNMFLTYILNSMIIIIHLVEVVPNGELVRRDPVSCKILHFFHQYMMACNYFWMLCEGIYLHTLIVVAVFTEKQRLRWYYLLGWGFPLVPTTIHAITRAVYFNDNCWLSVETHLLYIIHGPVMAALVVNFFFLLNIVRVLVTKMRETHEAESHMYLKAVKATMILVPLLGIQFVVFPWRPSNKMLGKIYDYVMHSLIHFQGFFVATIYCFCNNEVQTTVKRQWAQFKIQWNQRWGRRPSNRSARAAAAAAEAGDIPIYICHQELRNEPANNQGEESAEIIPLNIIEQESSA


What was measured:
[1] = molecular target: T1, human amylin 3(a) receptor (human …); assay: cell-based or functional assay
[2] = molecular target: T2, human calcitonin (a) receptor; assay: cell-based or functional assay

Binder | Amylin receptor human EC50 [1] [nM] | CTa receptor human EC50 [2] [nM]
{C20 diacid-γGlu}-KCNTATCATQRLAEFLHHSSDNFGPILPPTNVGSHTY-NH2 (disulfide 2-7; SMILES CC[C@H](C)[C@H](NC(=O)[C@@H]1CCCN1C(=O)CNC(=O)[C@H](Cc1ccccc1)NC(=O)[C@H](CC(N)=O)NC(=O)[C@H](CC(=O)O)NC(=O)[C@H](CO)NC(=O)[C@H](CO)NC(=O)[C@H](Cc1c[nH]cn1)NC(=O)[C@H](Cc1c[nH]cn1)NC(=O)[C@H](CC(C)C)NC(=O)[C@H](Cc1ccccc1)NC(=O)[C@H](CCC(=O)O)NC(=O)[C@H](C)NC(=O)[C@H](CC(C)C)NC(=O)[C@H](CCCNC(=N)N)NC(=O)[C@H](CCC(N)=O)NC(=O)[C@@H](NC(=O)[C@H](C)NC(=O)[C@@H]1CSSC[C@H](NC(=O)[C@H](CCCCN)NC(=O)CC[C@H](NC(=O)CCCCCCCCCCCCCCCCCCC(=O)O)C(=O)O)C(=O)N[C@@H](CC(N)=O)C(=O)N[C@@H]([C@@H](C)O)C(=O)N[C@@H](C)C(=O)N[C@@H]([C@@H](C)O)C(=O)N1)[C@@H](C)O)C(=O)N[C@@H](CC(C)C)C(=O)N1CCC[C@H]1C(=O)N1CCC[C@H]1C(=O)N[C@H](C(=O)N[C@@H](CC(N)=O)C(=O)N[C@H](C(=O)NCC(=O)N[C@@H](CO)C(=O)N[C@@H](Cc1c[nH]cn1)C(=O)N[C@H](C(=O)N[C@@H](Cc1ccc(O)cc1)C(N)=O)[C@@H](C)O)C(C)C)[C@@H](C)O) [N-alpha-[(S)-4-Carboxy-4-(19-carboxynonadecanoylamino)butyryl]-[Glu14,His17,Asp21,His35]-pramlintide] | 0.291 | 0.266
{C20 diacid-γGlu}-EKCNTATCATQRLAEFLHHSSQNFGPILPPTNVGSHTY-NH2 (disulfide 3-8; not fully specified; printed as N-alpha-[(S)-4-Carboxy-4-(19-carboxynonadecanoylamino)butyryl]-Glu-[Glu14,His17,Gln21,His35]-pramlintide) | 0.391 | 0.247
{C20 diacid-γGlu}-KCNTATCATQRLAEFLHHSSQNFGPILPPTNVGSNTP-NH2 (disulfide 2-7; SMILES CC[C@H](C)[C@H](NC(=O)[C@@H]1CCCN1C(=O)CNC(=O)[C@H](Cc1ccccc1)NC(=O)[C@H](CC(N)=O)NC(=O)[C@H](CCC(N)=O)NC(=O)[C@H](CO)NC(=O)[C@H](CO)NC(=O)[C@H](Cc1c[nH]cn1)NC(=O)[C@H](Cc1c[nH]cn1)NC(=O)[C@H](CC(C)C)NC(=O)[C@H](Cc1ccccc1)NC(=O)[C@H](CCC(=O)O)NC(=O)[C@H](C)NC(=O)[C@H](CC(C)C)NC(=O)[C@H](CCCNC(=N)N)NC(=O)[C@H](CCC(N)=O)NC(=O)[C@@H](NC(=O)[C@H](C)NC(=O)[C@@H]1CSSC[C@H](NC(=O)[C@H](CCCCN)NC(=O)CC[C@H](NC(=O)CCCCCCCCCCCCCCCCCCC(=O)O)C(=O)O)C(=O)N[C@@H](CC(N)=O)C(=O)N[C@@H]([C@@H](C)O)C(=O)N[C@@H](C)C(=O)N[C@@H]([C@@H](C)O)C(=O)N1)[C@@H](C)O)C(=O)N[C@@H](CC(C)C)C(=O)N1CCC[C@H]1C(=O)N1CCC[C@H]1C(=O)N[C@H](C(=O)N[C@@H](CC(N)=O)C(=O)N[C@H](C(=O)NCC(=O)N[C@@H](CO)C(=O)N[C@@H](CC(N)=O)C(=O)N[C@H](C(=O)N1CCC[C@H]1C(N)=O)[C@@H](C)O)C(C)C)[C@@H](C)O) [N-alpha-[(S)-4-Carboxy-4-(19-carboxynonadecanoylamino)butyryl]-[Glu14,His17,Gln21,Pro37]-pramlintide] | 0.0555 | 0.0315
KCNTATCATQRLAEFLVHSSK([AEEA-AEEA-γGlu-19‑carboxyheptadecanoyl])NFGPILSSTNVGSHTY-NH2 (disulfide 2-7) | 0.858 | 0.336
KCNTATCATQRLAEFLVHSSK([AEEA-AEEA-γGlu-19‑carboxyheptadecanoyl])NFGPILPPTNVGSHTY-NH2 (disulfide 2-7) | 0.999 | 0.601
KCNTATCATQRLAEFLHHSSSNFGK([AEEA-AEEA-γGlu-19‑carboxyheptadecanoyl])ILSSTNVGSHTY-NH2 (disulfide 2-7) | 0.416 | 0.142
KCNTATCATQRLANFLHHSSHNFGK([AEEA-AEEA-γGlu-19‑carboxyheptadecanoyl])ILSSTNVGSHTY-NH2 (disulfide 2-7) | 0.39 | 0.194
{C20 diacid-γGlu}-KCNTATCATQRLAEFLHHSSNNFGPILPPTNVGSQTP-NH2 (disulfide 2-7; SMILES CC[C@H](C)[C@H](NC(=O)[C@@H]1CCCN1C(=O)CNC(=O)[C@H](Cc1ccccc1)NC(=O)[C@H](CC(N)=O)NC(=O)[C@H](CC(N)=O)NC(=O)[C@H](CO)NC(=O)[C@H](CO)NC(=O)[C@H](Cc1c[nH]cn1)NC(=O)[C@H](Cc1c[nH]cn1)NC(=O)[C@H](CC(C)C)NC(=O)[C@H](Cc1ccccc1)NC(=O)[C@H](CCC(=O)O)NC(=O)[C@H](C)NC(=O)[C@H](CC(C)C)NC(=O)[C@H](CCCNC(=N)N)NC(=O)[C@H](CCC(N)=O)NC(=O)[C@@H](NC(=O)[C@H](C)NC(=O)[C@@H]1CSSC[C@H](NC(=O)[C@H](CCCCN)NC(=O)CC[C@H](NC(=O)CCCCCCCCCCCCCCCCCCC(=O)O)C(=O)O)C(=O)N[C@@H](CC(N)=O)C(=O)N[C@@H]([C@@H](C)O)C(=O)N[C@@H](C)C(=O)N[C@@H]([C@@H](C)O)C(=O)N1)[C@@H](C)O)C(=O)N[C@@H](CC(C)C)C(=O)N1CCC[C@H]1C(=O)N1CCC[C@H]1C(=O)N[C@H](C(=O)N[C@@H](CC(N)=O)C(=O)N[C@H](C(=O)NCC(=O)N[C@@H](CO)C(=O)N[C@@H](CCC(N)=O)C(=O)N[C@H](C(=O)N1CCC[C@H]1C(N)=O)[C@@H](C)O)C(C)C)[C@@H](C)O) [N-alpha-[(S)-4-Carboxy-4-(19-carboxynonadecanoylamino)butyryl]-[Glu14,His17,Gln35,Pro37]-pramlintide] | 0.103 | 0.097
{C20 diacid-γGlu}-KCNTATCATQRLAEFLHHSSQNFGPILPPTNVGSQTP-NH2 (disulfide 2-7; SMILES CC[C@H](C)[C@H](NC(=O)[C@@H]1CCCN1C(=O)CNC(=O)[C@H](Cc1ccccc1)NC(=O)[C@H](CC(N)=O)NC(=O)[C@H](CCC(N)=O)NC(=O)[C@H](CO)NC(=O)[C@H](CO)NC(=O)[C@H](Cc1c[nH]cn1)NC(=O)[C@H](Cc1c[nH]cn1)NC(=O)[C@H](CC(C)C)NC(=O)[C@H](Cc1ccccc1)NC(=O)[C@H](CCC(=O)O)NC(=O)[C@H](C)NC(=O)[C@H](CC(C)C)NC(=O)[C@H](CCCNC(=N)N)NC(=O)[C@H](CCC(N)=O)NC(=O)[C@@H](NC(=O)[C@H](C)NC(=O)[C@@H]1CSSC[C@H](NC(=O)[C@H](CCCCN)NC(=O)CC[C@H](NC(=O)CCCCCCCCCCCCCCCCCCC(=O)O)C(=O)O)C(=O)N[C@@H](CC(N)=O)C(=O)N[C@@H]([C@@H](C)O)C(=O)N[C@@H](C)C(=O)N[C@@H]([C@@H](C)O)C(=O)N1)[C@@H](C)O)C(=O)N[C@@H](CC(C)C)C(=O)N1CCC[C@H]1C(=O)N1CCC[C@H]1C(=O)N[C@H](C(=O)N[C@@H](CC(N)=O)C(=O)N[C@H](C(=O)NCC(=O)N[C@@H](CO)C(=O)N[C@@H](CCC(N)=O)C(=O)N[C@H](C(=O)N1CCC[C@H]1C(N)=O)[C@@H](C)O)C(C)C)[C@@H](C)O) | 0.091 | 0.045
